In the supplement of paper PMC11811203:

B1: THAP1; numbered along this chain (parent)
chain: MVQSCSAYGCKNRYDKDKPVSFHKFPLTRPSLCKEWEAAVRRKNFKPTKYSSICSEHFTPDCFKRECNNKLLKENAVPTIFLCTEPHDKKEDLLEPQEQLPPPPLPPPVSQVDAAIGLLMPPLQTPVNLSVFCDHNYTVEDTMHQRKRIHQLEQQVEKLRKKLKTAQQRCRRQERQLEKLKEVVHFQKEKDDVSERGYVILPNDYFEIVEVPA

Variants of: B1
Experiment: THAP1 transcriptional activity (GFP+/GFP- enrichment relative to wild-type constructs) (ratio to WT); higher = more THAP1 activity (PSMB5 reporter activation)
Conditions: with PSMB5 promoter-GFP reporter
Description: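 Deep mutational scan of human THAP1. Site-saturation single amino acid variant library (residues 2-213) was expressed by lentivirus at MOI ~0.3 in THAP1-knockout HEK-293T cells carrying an endogenous PSMB5 promoter-GFP knock-in reporter. Five days post-transduction, BFP+ cells were FACS-sorted into GFP dim and GFP bright populations and variants were counted by Illumina sequencing. Activity is the GFP-bright/GFP-dim read fold change, mean of 2 replicates, divided by the mean fold change of wild-type (synonymous) constructs in the same screen pool; WT = 1.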

Point of comparison: E153V, THAP1 transcriptional activity 0.395. Against it:
- R13C — lower, 0.132
- Q168E — higher, 0.498
- Q168T — higher, 0.711
- E35C — lower, 0.317
- E35I — higher, 0.451
- E35R — higher, 0.909
- R169G — lower, 0.181
- R169S — lower, 0.262
- I149H — lower, 0.248
- K188C — higher, 0.792
- E37P — lower, 0.245
- E37V — higher, 0.484
- E37C — higher, 0.963
- P96D — higher, 1.15
- P96Q — higher, 0.834
- P96S — higher, 1.72
- P96I — higher, 0.683
- V77Y — lower, 0.279
- L123M — higher, 0.859
- L123S — higher, 0.637
- E153W — lower, 0.268
- E153T — higher, 0.774
- V127N — higher, 0.997
- V127E — higher, 0.897
- H144K — higher, 0.954
- H144N — higher, 0.686
- S6A — higher, 0.787
- T48Q — lower, 0.0994
- T48F — lower, 0.109
- I208C — higher, 1.06
- I208M — higher, 1.25
- I208G — higher, 0.803
- P26W — lower, 0.0853
- P26D — lower, 0.0858
- Q167E — lower, 0.37
- P108M — higher, 0.588
- P108E — higher, 1.26
- P108S — higher, 1.65
- Q176R — higher, 1.1
- Q176N — higher, 0.518
- Q176V — higher, 0.499
- D192R — higher, 0.932
- D192L — higher, 1.22
- L201Q — higher, 0.653
- L32C — lower, 0.199
- C170P — lower, 0.15
- Q111W — lower, 0.132
- T125N — higher, 0.786
- T125M — lower, 0.329
- R160D — lower, 0.216
- T79I — higher, 0.861
- T79W — lower, 0.281
- K43D — higher, 0.503
- F186C — higher, 2.01
- F186S — higher, 1.93
- F186D — higher, 1.4
- F186A — higher, 1.67
- F186V — higher, 1.11
- L163A — lower, 0.118
- C62R — lower, 0.181
- C62F — lower, 0.151
- R172K — higher, 0.684
- F132L — higher, 1.12
- F132K — higher, 1
- F132V — higher, 0.402
- P60Q — higher, 1.17
- P60D — higher, 0.532
- P60W — lower, 0.256
- T165H — higher, 0.785
- T165S — higher, 1.6
- L105T — higher, 1.56
- L105E — higher, 1.27
- T84M — higher, 1.23
- T84I — higher, 0.739
- D15V — higher, 0.631
- P212M — higher, 1.4
- K18T — lower, 0.348
- E74N — higher, 0.686
- E210L — higher, 0.744
- I200F — higher, 0.819
- I200A — higher, 0.558
- I200P — higher, 0.688
- I200T — higher, 0.694
- P126Y — lower, 0.194
- P126T — higher, 0.484
- H87K — higher, 1.13
- H87W — higher, 1.17
- V209L — higher, 0.773
- N68K — lower, 0.162
- N68T — lower, 0.179
- K46P — lower, 0.126
- N128V — lower, 0.346
- N128P — higher, 0.417
- S21V — lower, 0.0819
- S21Y — lower, 0.109
- S21R — lower, 0.131
- A76T — lower, 0.18
- E195G — higher, 1.07
- V40Y — lower, 0.101
- K34L — higher, 0.613
- S31E — higher, 1.31
- S31P — lower, 0.204
- I53A — lower, 0.136
- R146I — lower, 0.358
- C133M — higher, 0.928
- C133Q — higher, 1.27
- T138K — lower, 0.191
- T138S — higher, 1.07
- S4M — lower, 0.201
- S4T — higher, 0.966
- S4A — lower, 0.338
- R29C — lower, 0.137
- R29V — lower, 0.177
- R29S — lower, 0.134
- Y137Q — lower, 0.186
- Y137H — lower, 0.111
- K90W — higher, 0.775
- V20W — lower, 0.141
- V20Q — lower, 0.139
- R148K — higher, 1.02
- R148G — lower, 0.324
- G9L — lower, 0.184
- L27W — lower, 0.263
- L27F — higher, 0.503
- L27K — lower, 0.111
- E140P — higher, 3.02
- E140M — higher, 1.04
- P47Y — lower, 0.114
- P47F — lower, 0.0757
- C83T — higher, 1.67
- K64Q — lower, 0.25
- K64Y — lower, 0.0778
- P78R — lower, 0.156
- P78Y — higher, 0.488
- Y8Q — higher, 0.509
- Y8S — higher, 0.467
- D61C — lower, 0.198
- D61G — lower, 0.219
- D61I — lower, 0.133
- D61F — lower, 0.173
- D61H — lower, 0.228
- F206K — higher, 1.08
- N12A — lower, 0.107
- N12P — lower, 0.0735
- Q154G — higher, 0.732
- Q154A — higher, 1.06
- Q187F — higher, 0.78
- Q187E — higher, 0.824
- S55I — lower, 0.114
- S55D — lower, 0.077
- G197M — higher, 1.03
- G197Q — higher, 1.29
- N44L — lower, 0.205
- N44F — lower, 0.301
- K24G — lower, 0.13
- D191G — higher, 1.05
- D17W — higher, 0.509
- D17Y — higher, 0.747
- D17A — higher, 1.12
- Q99V — higher, 0.773
- Q99D — higher, 0.731
- Q99A — higher, 0.795
- H23T — lower, 0.0534
- H23R — lower, 0.084
- H23W — lower, 0.0807
- H23S — lower, 0.127
